Bridge positions count the residues as written; N and C are the ends. Square brackets hold non-standard residues; d marks the D form. Ends that are not written are not given here. * marks the point of attachment. Abu(4-SO3H) = N[C@@H](CCS(=O)(=O)O)C(=O)O; PhLac = O=C(O)[C@@H](O)Cc1ccccc1; Carboxymethyl = O=C(O)C*; NSG‑1 = not defined here; NSG‑2 = not defined here

Assay [1] has as its target T1, glucagon receptor (UniProt P47871 26-477, limits assumed). Put plainly: cell-based or functional assay.
The target of assay [2] is T1, glucagon receptor. Put plainly: receptor binding, method not described.
The target of assay [3] is T1, glucagon receptor. Description: assay not named in Table F; taken as receptor binding.
Assay [4] concerns the target T1, glucagon receptor. Description: cell-based or functional assay. This is another data set of the same source.
Assay [5] deals with T1, glucagon receptor. Description: receptor binding, method not described. This is another data set of the same source.
Assay [6] has as its target T1, glucagon receptor. Put plainly: cell-based or functional assay. The source holds these as a separate data set.
In assay [7] the target is T1, glucagon receptor. Description: column IC50(nM) beside the cAMP columns of Table H; taken as receptor binding.
Assay [8] addresses T1, glucagon receptor. Put plainly: cell-based or functional assay. The source holds these as a separate data set.

T1 sequence (P47871 26-477 limits assumed): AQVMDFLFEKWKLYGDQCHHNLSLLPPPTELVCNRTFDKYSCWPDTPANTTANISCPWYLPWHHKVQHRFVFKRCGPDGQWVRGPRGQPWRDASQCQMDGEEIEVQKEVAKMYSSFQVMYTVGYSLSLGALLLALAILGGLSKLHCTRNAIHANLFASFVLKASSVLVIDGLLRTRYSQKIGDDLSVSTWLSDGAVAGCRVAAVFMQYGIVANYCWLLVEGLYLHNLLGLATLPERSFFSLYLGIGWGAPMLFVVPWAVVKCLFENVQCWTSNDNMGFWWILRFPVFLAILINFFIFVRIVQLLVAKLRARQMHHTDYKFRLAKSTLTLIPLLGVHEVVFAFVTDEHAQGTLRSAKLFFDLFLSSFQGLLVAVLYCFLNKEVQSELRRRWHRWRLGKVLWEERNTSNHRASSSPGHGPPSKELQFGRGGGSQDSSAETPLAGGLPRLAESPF

B1: [desHis^1, desPhe^6, hCys^9(SO3^-), Phe^25, Leu^27]Glucagon-NH2 (peptide)
peptide: SQGTTSXYSKYLDSRRAQDFVQFLLNT
HELM: PEPTIDE1{S.Q.G.T.T.S.[O=C([C@H](CCS(=O)(=O)O)N[*:1])[*:2]].Y.S.K.Y.L.D.S.R.R.A.Q.D.F.V.Q.F.L.L.N.T.[am]}$$$$V2.0; N-terminus assumed
SMILES: CC(C)C[C@H](NC(=O)[C@H](Cc1ccc(O)cc1)NC(=O)[C@H](CCCCN)NC(=O)[C@H](CO)NC(=O)[C@H](Cc1ccc(O)cc1)NC(=O)[C@H](CCS(=O)(=O)O)NC(=O)[C@H](CO)NC(=O)[C@@H](NC(=O)[C@@H](NC(=O)CNC(=O)[C@H](CCC(N)=O)NC(=O)[C@@H](N)CO)[C@@H](C)O)[C@@H](C)O)C(=O)N[C@@H](CC(=O)O)C(=O)N[C@@H](CO)C(=O)N[C@@H](CCCNC(=N)N)C(=O)N[C@@H](CCCNC(=N)N)C(=O)N[C@@H](C)C(=O)N[C@@H](CCC(N)=O)C(=O)N[C@@H](CC(=O)O)C(=O)N[C@@H](Cc1ccccc1)C(=O)N[C@H](C(=O)N[C@@H](CCC(N)=O)C(=O)N[C@@H](Cc1ccccc1)C(=O)N[C@@H](CC(C)C)C(=O)N[C@@H](CC(C)C)C(=O)N[C@@H](CC(N)=O)C(=O)N[C@H](C(N)=O)[C@@H](C)O)C(C)C
notes: also called Cmpd
As usually defined, the IC50 is the concentration at which inhibition is half-maximal. A higher IC50 goes with a need for much substance. For the molecule B1, in the assay with glucagon receptor [1], the “cAMP Induction EC50” value came to 3210 nM and the “cAMP Inhibition IC50” value came out at 9220 nM. For the same molecule, the concentration for half-maximal inhibition (IC50) with glucagon receptor [2] amounted to 53.3 nM.
As for SQGTFTS[NSG‑1]YSKYLDSRRAQDFVQWLMNT-NH2 (reading uncertain, also called peptide no) [[(NSG-1)^9]Glucagon(aa2-29)-NH2], the 50% inhibitory concentration (IC50) with glucagon receptor [3] worked out at 983 nM.
Regarding [PhLac]TS[Abu(4-SO3H)]YSKYLDSRRAQDFVQWLMNT-NH2 [[PLA6, hCys(SO3)9]Glucagon(aa6-29)-NH2], the “IC50(nM) (cAMP, inhibit Glucagon) 0.1 nM or 0.2 nM” value with glucagon receptor [4] was 40.2 nM. Also, in the assay with glucagon receptor [5], the IC50 stood at 14.2 nM.
SQGTFTSXYSKYLDSRRAQDFVQWLMNT (homoglutamic acid at position 9; C-terminal amide, also called peptide no) [[hGlu^9]Glucagon(aa2-29)-NH2] yielded an IC50 in the assay with glucagon receptor [3] of 8.1 nM.

B2: [desHis^1, hCys^9(SO3^-), Phe^25, Leu^27]Glucagon-NH2 (peptide)
peptide: SQGTFTSXYSKYLDSRRAQDFVQFLLNT
HELM: PEPTIDE1{S.Q.G.T.F.T.S.[O=C([C@H](CCS(=O)(=O)O)N[*:1])[*:2]].Y.S.K.Y.L.D.S.R.R.A.Q.D.F.V.Q.F.L.L.N.T.[am]}$$$$V2.0; N-terminus assumed
SMILES: CC(C)C[C@H](NC(=O)[C@H](Cc1ccc(O)cc1)NC(=O)[C@H](CCCCN)NC(=O)[C@H](CO)NC(=O)[C@H](Cc1ccc(O)cc1)NC(=O)[C@H](CCS(=O)(=O)O)NC(=O)[C@H](CO)NC(=O)[C@@H](NC(=O)[C@H](Cc1ccccc1)NC(=O)[C@@H](NC(=O)CNC(=O)[C@H](CCC(N)=O)NC(=O)[C@@H](N)CO)[C@@H](C)O)[C@@H](C)O)C(=O)N[C@@H](CC(=O)O)C(=O)N[C@@H](CO)C(=O)N[C@@H](CCCNC(=N)N)C(=O)N[C@@H](CCCNC(=N)N)C(=O)N[C@@H](C)C(=O)N[C@@H](CCC(N)=O)C(=O)N[C@@H](CC(=O)O)C(=O)N[C@@H](Cc1ccccc1)C(=O)N[C@H](C(=O)N[C@@H](CCC(N)=O)C(=O)N[C@@H](Cc1ccccc1)C(=O)N[C@@H](CC(C)C)C(=O)N[C@@H](CC(C)C)C(=O)N[C@@H](CC(N)=O)C(=O)N[C@H](C(N)=O)[C@@H](C)O)C(C)C
notes: also called Cmpd
B2: the “cAMP Induction EC50” value in the assay with glucagon receptor [1] is 430 nM. In the assay with glucagon receptor [2], this molecule came in with an IC50 of 13.9 nM.

B3: [(CSA-1)^9]Glucagon(aa2-29)-NH2 (peptide)
peptide: SQGTFTSC(Carboxymethyl)YSKYLDSRRAQDFVQWLMNT-NH2
modifications: N-terminus assumed
SMILES: CSCC[C@H](NC(=O)[C@H](CC(C)C)NC(=O)[C@H](Cc1c[nH]c2ccccc12)NC(=O)[C@H](CCC(N)=O)NC(=O)[C@@H](NC(=O)[C@H](Cc1ccccc1)NC(=O)[C@H](CC(=O)O)NC(=O)[C@H](CCC(N)=O)NC(=O)[C@H](C)NC(=O)[C@H](CCCNC(=N)N)NC(=O)[C@H](CCCNC(=N)N)NC(=O)[C@H](CO)NC(=O)[C@H](CC(=O)O)NC(=O)[C@H](CC(C)C)NC(=O)[C@H](Cc1ccc(O)cc1)NC(=O)[C@H](CCCCN)NC(=O)[C@H](CO)NC(=O)[C@H](Cc1ccc(O)cc1)NC(=O)[C@H](CSCC(=O)O)NC(=O)[C@H](CO)NC(=O)[C@@H](NC(=O)[C@H](Cc1ccccc1)NC(=O)[C@@H](NC(=O)CNC(=O)[C@H](CCC(N)=O)NC(=O)[C@@H](N)CO)[C@@H](C)O)[C@@H](C)O)C(C)C)C(=O)N[C@@H](CC(N)=O)C(=O)N[C@H](C(N)=O)[C@@H](C)O
notes: also called peptide no
As to B3, the IC50 in the assay with glucagon receptor [3] turned out to be 12.7 nM.

B4: [(CSA-2)^9]Glucagon(aa2-29)-NH2 (peptide)
peptide: SQGTFTSCYSKYLDSRRAQDFVQWLMNT
HELM: PEPTIDE1{S.Q.G.T.F.T.S.[O=C(O)CCSC[C@H](N[*:1])C(=O)[*:2]].Y.S.K.Y.L.D.S.R.R.A.Q.D.F.V.Q.W.L.M.N.T.[am]}$$$$V2.0; N-terminus assumed
SMILES: CSCC[C@H](NC(=O)[C@H](CC(C)C)NC(=O)[C@H](Cc1c[nH]c2ccccc12)NC(=O)[C@H](CCC(N)=O)NC(=O)[C@@H](NC(=O)[C@H](Cc1ccccc1)NC(=O)[C@H](CC(=O)O)NC(=O)[C@H](CCC(N)=O)NC(=O)[C@H](C)NC(=O)[C@H](CCCNC(=N)N)NC(=O)[C@H](CCCNC(=N)N)NC(=O)[C@H](CO)NC(=O)[C@H](CC(=O)O)NC(=O)[C@H](CC(C)C)NC(=O)[C@H](Cc1ccc(O)cc1)NC(=O)[C@H](CCCCN)NC(=O)[C@H](CO)NC(=O)[C@H](Cc1ccc(O)cc1)NC(=O)[C@H](CSCCC(=O)O)NC(=O)[C@H](CO)NC(=O)[C@@H](NC(=O)[C@H](Cc1ccccc1)NC(=O)[C@@H](NC(=O)CNC(=O)[C@H](CCC(N)=O)NC(=O)[C@@H](N)CO)[C@@H](C)O)[C@@H](C)O)C(C)C)C(=O)N[C@@H](CC(N)=O)C(=O)N[C@H](C(N)=O)[C@@H](C)O
notes: also called peptide no
Turning to B4, the IC50 with glucagon receptor [3] turned out to be 13.3 nM.
Consider XTSDYSKYLDSRRAQDFVQWLMDT (PLA at position 6, N-terminal to residues 7-29; C-terminal amide) [[PLA6, D9, D28]Glucagon(aa6-29)-NH2], for which, in the assay with glucagon receptor [4], the “IC50(nM) (cAMP, inhibit Glucagon) 0.1 nM or 0.2 nM” value was found to be 1.32 nM. Besides, the IC50 in the assay with glucagon receptor [5] turned out to be 9 nM.

B5: [PLA6, D9]Glucagon(aa6-29)-NH2 (peptide)
peptide: XTSDYSKYLDSRRAQDFVQWLMNT
HELM: PEPTIDE1{[O=C([C@@H](O)Cc1ccccc1)[*:2]].T.S.D.Y.S.K.Y.L.D.S.R.R.A.Q.D.F.V.Q.W.L.M.N.T.[am]}$$$$V2.0; N-terminus assumed
SMILES: CSCC[C@H](NC(=O)[C@H](CC(C)C)NC(=O)[C@H](Cc1c[nH]c2ccccc12)NC(=O)[C@H](CCC(N)=O)NC(=O)[C@@H](NC(=O)[C@H](Cc1ccccc1)NC(=O)[C@H](CC(=O)O)NC(=O)[C@H](CCC(N)=O)NC(=O)[C@H](C)NC(=O)[C@H](CCCNC(=N)N)NC(=O)[C@H](CCCNC(=N)N)NC(=O)[C@H](CO)NC(=O)[C@H](CC(=O)O)NC(=O)[C@H](CC(C)C)NC(=O)[C@H](Cc1ccc(O)cc1)NC(=O)[C@H](CCCCN)NC(=O)[C@H](CO)NC(=O)[C@H](Cc1ccc(O)cc1)NC(=O)[C@H](CC(=O)O)NC(=O)[C@H](CO)NC(=O)[C@@H](NC(=O)[C@@H](O)Cc1ccccc1)[C@@H](C)O)C(C)C)C(=O)N[C@@H](CC(N)=O)C(=O)N[C@H](C(N)=O)[C@@H](C)O
In the case of B5, the “IC50(nM) (cAMP, inhibit Glucagon) 0.1 nM or 0.2 nM” value with glucagon receptor [4] is 6.9 nM. The molecule also yielded an IC50 with glucagon receptor [5] of 13.8 nM.

B6: [PLA6, D9]Glucagon(aa6-29)-COOH (peptide)
peptide: XTSDYSKYLDSRRAQDFVQWLMNT
HELM: PEPTIDE1{[O=C([C@@H](O)Cc1ccccc1)[*:2]].T.S.D.Y.S.K.Y.L.D.S.R.R.A.Q.D.F.V.Q.W.L.M.N.T}$$$$V2.0; N-terminus assumed
SMILES: CSCC[C@H](NC(=O)[C@H](CC(C)C)NC(=O)[C@H](Cc1c[nH]c2ccccc12)NC(=O)[C@H](CCC(N)=O)NC(=O)[C@@H](NC(=O)[C@H](Cc1ccccc1)NC(=O)[C@H](CC(=O)O)NC(=O)[C@H](CCC(N)=O)NC(=O)[C@H](C)NC(=O)[C@H](CCCNC(=N)N)NC(=O)[C@H](CCCNC(=N)N)NC(=O)[C@H](CO)NC(=O)[C@H](CC(=O)O)NC(=O)[C@H](CC(C)C)NC(=O)[C@H](Cc1ccc(O)cc1)NC(=O)[C@H](CCCCN)NC(=O)[C@H](CO)NC(=O)[C@H](Cc1ccc(O)cc1)NC(=O)[C@H](CC(=O)O)NC(=O)[C@H](CO)NC(=O)[C@@H](NC(=O)[C@@H](O)Cc1ccccc1)[C@@H](C)O)C(C)C)C(=O)N[C@@H](CC(N)=O)C(=O)N[C@H](C(=O)O)[C@@H](C)O
With B6, the “IC50(nM) (cAMP, inhibit Glucagon) 0.1 nM or 0.2 nM” value in the assay with glucagon receptor [4] was found to be 13.2 nM. This molecule also came in with an IC50 in the assay with glucagon receptor [5] of 15.5 nM.
In the assay with glucagon receptor [3], SQGTFTS[NSG‑2]YSKYLDSRRAQDFVQWLMNT-NH2 (reading uncertain, also called peptide no) [[(NSG-2)^9]Glucagon(aa2-29)-NH2] showed an IC50 of 2350 nM.
With SQGTFTS[Abu(4-SO3H)]YSKYLDSRRAQDFVQWLMNT-NH2 [[hCys^9(SO3H)]Glucagon(aa2-29)-NH2], in the assay with glucagon receptor [6], the “cAMP IC50” value came out at 147 nM. Besides, in the assay with glucagon receptor [7], the IC50 was 13.2 nM.
On to AEGTFTSEYSKYLDERRAKDFVQWLMDT (lactam 15-19) [[A2E3, E16K20(Lactam),D28]G(2~29)], for which the “Glucagon IC50” value with glucagon receptor [8] was 63 nM.

The values are drawn from patent US20120322725A1 (INDIANA UNIVERSITY RESEARCH AND TECHNOLOGY, published 2012).
